Data from the domain aggregation screens of Martell et al. (2025).

experiment: soluble fraction after stress (log2 fold change); higher = more stays soluble; pooled small domains, quantitative proteomics; settings: stress: 50 degC
Outline: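 Pooled custom libraries of small protein domains were each held under stress at 50°C. The read-out, high-throughput quantitative proteomics, tracked how much of each protein stayed soluble. This is reported as a base-two log fold change used to indicate aggregation propensity. Higher values mean more protein remains in solution.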

Point of comparison: “HMGIIYGKNPVLEAISSGTTINKIYAQTSNKEIDSVIKEALKRKIIVVNTDKQKLDKMIDGKNSQGIIASI”, “soluble fraction (log2)” value 0.317. Against it:
- HMFSNATISGLKAGALVRVYNISGVAVSTLTADAEGKVSVDLNNLPKGVYILSTPSKSFKVLN — lower, -0.54
- HMDRRFFVAEENYKRLDVFLSERMEEFTRSRIKKLIDEGHVELNGKSAKAGAEIRPGDEVAAEIPEVKE — within 0.2 log units, 0.147
- HMSKTKDVLVQLMAERGLTQSDIARALSVRPQAVQQWVSGKTRPTGKNLEALAEFLQLPPAVIVHGP — lower, -0.00766
- HMRFTVSDKMDMLLKSLSAGQSMPFKSLFASASTKSEVIVTFLALLELMKLNQFVVWQDQILGEIEIERR — lower, -0.554
- HMFYQLTENQRRILSSLEQNPRVSAAHLAEEIGISSRKVENNLKKLKEIGLLQRHGSPRKGYWSINQGW — lower, -0.623
- HMLSAQEIPVEDIATRDFVLAEDVVSAKKVLLLPKGVDLSWFGSAKKRLVQRLKSEGVTHIRVFA — lower, -0.0541
- HMLLSYDIAEYIEKYIHEHGLQPGDRLPTERELAAQLDITRVSVRQGYKRLLDQGVIRSENGYYVNPPR — lower, -1.34
- HMFAAIFADDSGFTTRSKRFGPYVEEIAADWQAVKQLSDEDAKQALVPLVKKIELALSTLQQFVSSV — lower, -0.244
- HMSVLRLGNRGPDVRKLQLLLNSTLVPSPQLTVDGDFGKRTEQAVVTFQQMRGLPQDGIVGQRTWALLGQT — lower, -0.518
- HMRLIDVFELSPKNRTVLQLYYYEGYSVTEISKILKISVNGVTSRLSRARSKLKLEMEAAENE — lower, -0.316
- HMGIAWGMLREQVAASDVSYRSEVLDILDRTPVWIYDAEGKIVDGRKKRLMDLQGGEPYRHMLEHFFPDLR — lower, -2.48
- HMPINPKVKQIYDTLKDGGADVGSEKEFNDYFFAKGKDGYNNRKEVFNTLREGGADAGKSYEEFAGWLGL — within 0.2 log units, 0.362
- HMNTLPASVQPKKGRLYAVIQTKENGKSKPVWRSLGLPEGSNKSKVNKAFREVVKQFEEEYAERLAR — lower, 0.0511
- HMASEKSEQLYQQMKLDIAGMPPDTRLPSIRALMRSYSVSQLLIDRTLGRLREEGALRKRFDGLYTYL — lower, -2.06
- HMAKSMRHLIVPSRETSLWRDKLSTNGWLSKGYGIHNLDDYRGIPLNETAPKIIEGLEITELEPIS — lower, 0.0863
- HMYAVDTIHKGTITEMTDKGAVVSLGDNIDGFAPARQLVKEDGTTLKLGDTADFKVIEFSKATKRITLSH — within 0.2 log units, 0.286
- HMDTIYMVVAKNIKYYRLIKSMSKKDLAEAVNVTPMAISNYENGKRKPEIDILKKIANVLGVRVVDFLTVR — lower, -1.73
- HMNLLPAGTYKLKDLVTAEDEEIGAKKGDVVIAHEDTPPSDRVLGVDIFPVIHKNTSKKIYVSLEDI — within 0.2 log units, 0.46
- HMALTARDLGLTHRQADVLHLVLQGKPVKLIARDLGLAEGTVKSHVSAVLRALNVTTRTQAIVAAGRLGLM — lower, -1.92
- HMVDWTFPVLVKDVVMMGRYGHMGFLRIPGKKDFESVDNALAKVGMVEYAKQQIGELSGGQR — lower, -0.0772
- HMLEKDIGKAITILRKSYQLSISAFSMRTGYSRVHISEVESGKRKATDELISVIRNVFHLDSNWPF — lower, -1.47
- HMNLWIDNTQVINDWTEGASERSGSIYLTAGVKPIKMQYFDSVLNAKAILRWQGPGINKSVVPSSALTPG — lower, -0.855
- HMGTDVFIMTGGTRKRGATWSYYFDLGKIDGKRQKKEKGGFKTKKEAETALAKAINEYNNAGA — lower, -0.0903
- HMSGENAVLTEGTMVTVRRGGETITATARKETVKQFLSRMDIIPGSREMVGIELMENSVMLTISD — lower, -0.227
- HMNNSSIGERLKYQRKIKGYSQEELADRTNVTVRTIQRIEKEEVSPHLNTIKLLAIALDIEVDELVAL — lower, -1.25
- HMTSHSFVITEEVGQRLDRFISDQLDTVSRTMIQKHIRSGAVVVNGKQVKSNYLLVLNDRINIALK — lower, -2.64
- HMLSYIELTVDNTSKASYIMTDKMKINNFKIIGNNTIRVYENKVSPQDISRTLSMNNVSIEALGRKS — lower, -1.03
- HMATVELELKPEELRAGMILTKDLISGTGMMLLNKGVTLDNVKVEAIQRYYQLDPPLHGVFALVHGK — lower, -0.503
- HMDFSVTIKGTSFPVMVSLKKMKQVRLKVFPSGEIKLSAPVGTPEKWIVEYLNDKMSWIEEKMDLFVQ — lower, -0.787
- HMDTKLFNYGVGKHAYISWNEGGKRTAYIGFGNDGADVLTINNVKQGGSLGIYKDKITLNSQTVLTD — lower, -0.0296
- HMTFPTEAKLTGDKVFVRSGPSTQSQRLTNLAINSVVTVLAREMGDMQYPWYKVRYSDGEGWVYGQYVEAI — lower, -0.0237
- HMHQKYIITGTRDTYVVSQGETLRTIAEHVYGSRGYARYIIEHNHITHPDDIPVGLTIRLPELELNPDYR — lower, -0.525
- HMKTRQVTVRNGRIEIFDKRFSTERLVFTAANLPVLEREGEVFTAGIPDSRDFINLWARDGSFAGSVPRV — lower, -1.06
- HMNHGDATTETQAEIMAILSDMKPHPITELNTIKRPYEQIDTALTYLINEEKIYRMDGMIFIG — lower, -0.694
- HMDDAFLNKEMLKQALENLNEREKKLIYLRFYEGLTQKEIADRLSLSQMHVSRLLNESLNKLRRKI — lower, -0.245
- HMGAAAQLLHAVVLRVPAEDTMKFVSETPELRRYLGAPLGPTAALVRPGQEQELAAALQAHGILVEFDE — lower, -0.0602
- HMARTIINLPLRNSVDESYNTTVNILQANGFKEVSYNGETVWKKGTGLLTAMQYIKIEFTDTTLVVSGWVQ — higher, ≥ 0.62
- HMYLNYQTIGKRIRLLRKQQHLTQMTLAEMVDKSPTYISLVENGQKGPSLETLIDVANALKVTMDVLLAEY — lower, -4.39
- HMGKQIKEIVEEYYDSTSKNSPVGGSWKTSLDGVDLTSPNITIWTRTKIKYVDGSESIVTPQSL — lower, -0.0357
- HMNEKFNVYPIPVYNNLNITGLSKPVTYLISSIDGKTIKNGVFQESIDVSDLKSGLYFLQVETKDPVKFIK — lower, -0.658
- HMEAPWQEIKRQVMDGLDMSREFTDEELRERIALAVRSYSKEKLLSLKVRESYEEQIFNSFR — lower, -0.239
- HMKVWYAGINAQRVGPMTLGAMEQQIRYGRVLFSTLIWKSPMPQWVPAGDVPELRRLLDEHMLNQMP — lower, -0.381
- HMTESSTYFEKIGTEISQFKSIPKNIDVIIIEKLIYSGIIKKVDNEENSRVYYILTRKGRYFWKRYVLS — lower, 0.0633
- HMRTKLEEAVEWLQEQLNDGPVLSKELESEAKAADILPGTLRRAGEALGVVKQKQGGRGGWTWSLPR — within 0.2 log units, 0.14
- HMQLTPAQHAILAKAIHSSDGKIEWFPDNVKGGARKKVLEGMFNRALITPDGEGWRIAAEGYDALGMPRP — lower, -0.0604
- HMDDHLSFLAARLPDGASFDTDFDALGIDSFGMIALRAEVEERLGEQIADSDWTKVERPSEILAMLERK — lower, -0.272
- HMANWRVGQTINALVSDRMPSGGLLLTVGRQSFVTTRDIPVQPGARIMLEVQQVEPKLVLRLVSA — lower, -1.17
- HMLQARKFTHIQGYEFEAEFLRTNGEFVELQDPQGRKKWFPISNFIQDDKDFIKEQAGNLSS — lower, -0.0494
- HMKQHPTIDLQIGQKLHYKEDVFEVTRFAKDKNGQDMVILKDPSIGSGIEIPWYRSKLEEIIESGQYKIT — within 0.2 log units, 0.413
- HMRLADHVVEKLLALVQDRGLQPGQKLPAERQLAEELGVSRTSVREAIQKLTSQGVLSARRGDGTYLQS — lower, 0.0556
- HMKIATIELVKEAVKSKLGKFTKRDIMELVPSVGKTTIENMLKQLIGEGYIERHGKGRATFYVK — lower, -0.56
- HMQSANQLIKLSRKRKGLTQQELADQAGVSLRTVQRIEKGTEEISGFSLKQISQILEIPLEQLIM — lower, -0.146
- HMGGQEEALNRLVLRELLGTLEKKERDLIVRRYFYDQTQTKIAEALGISQVQVSRMEKRILKKMREGF — lower, -0.914
- HMGPLYARVKAIVLARIMGGDWPPGTALPAEMELARALGVSQGTVRKALDALTAEQVVVRRQGSGTYVAE — lower, -1.04
- HMSGEITVPNLIGVEAIQAKTLLIQAGFLIKEFYDLDSTQPAGVVIRQAPEAGTTQTIGKSVTITINKQ — lower, -0.00644
- HMFDREKFIKLGQEFARVAFENVNKRATDRALKTAAKHYGLPSADELLARLGSSEIAARDVVAELYPNL — lower, -0.34
- HMNYTYTVPEGIRYLRADKALALAFPDHSRTALQRAFDSGLVTLRGVAIKRDQSVTALDTLEFAMPDI — lower, -0.81
- HMSKEKQILQLLQHGYSQRRIADTLSVSRNTVAKVAKAAIEHPVSSDSLDSIDELELHQKLFPEEVLI — lower, -0.339
- HMRRADRLLQLIQILRRHRRPVTGDVMARELEVSLRTVYRDIATLTIEGVPIRGEAGVGYVLGEGY — lower, -2.39
- HMKIPGIGDVYAILARVYSGPQFTWIEAGFPEDDTKAYSYLHTAIRKGSAIAILQAMRTSGALTPTIEKE — lower, -0.444
- HMKAQVKSVLDEIPGVGPTRRKALMKHFTSIEEIKQAEFETLLEAEGMNRAAAQSVYDFFHN — lower, -0.138
- HMIKLSEAEWKVMKLLWEESPKTMMQITNLLKETTGWTKHTVMTFLKRMEEKKAIHYEEGGRAKLYYP — lower, -0.589
- HMFDGYQWLKRDIIRGVYQPEEKLRMSLLTNRYGLGVGPLREALSQLVAEHLVTVVSQKGYRVAPM — lower, -0.112
- HMLKREDEVIVVAGKDKGKRGTITQLVGDDRVIVAGVNMVKRHTKPNPNLGQPGGIVEREASLHISNV — within 0.2 log units, 0.296
- HMNVESLVGKQVIVSETIDNLKATGQVKVNGLEWTARAADETDIIPQGTEVTINEVSGVKLIVSR — within 0.2 log units, 0.241
- HMDRKARRKYIEQVVNDRKIETQEELLKLLTEAGFETTQATISRDIHALNIVKANDGDGHTHYVQLH — within 0.2 log units, 0.144
- HMSTLTLTSGTYAVGENIKAGKYTIMGSGSIAISSSGKARVNSNLTADRKDYVLNDDETIKIKGKAQFIPI — lower, 0.11
